{"source": "paper PMC7159911", "about": "(Science Advances, 2020)", "proteins": {"B1": {"name": "rBAT (SLC3A1), human, N-terminal 10x His tag (natural protein, UniProt Q07837-1 1-685, looked up)", "chain": "MAEDKSKRDSIEMSMKGCQTNNGFVHNEDILEQTPDPGSSTDNLKHSTRGILGSQEPDFKGVQPYAGMPKEVLFQFSGQARYRIPREILFWLTVASVLVLIAATIAIIALSPKCLDWWQEGPMYQIYPRSFKDSNKDGNGDLKGIQDKLDYITALNIKTVWITSFYKSSLKDFRYGVEDFREVDPIFGTMEDFENLVAAIHDKGLKLIIDFIPNHTSDKHIWFQLSRTRTGKYTDYYIWHDCTHENGKTIPPNNWLSVYGNSSWHFDEVRNQCYFHQFMKEQPDLNFRNPDVQEEIKEILRFWLTKGVDGFSLDAVKFLLEAKHLRDEIQVNKTQIPDTVTQYSELYHDFTTTQVGMHDIVRSFRQTMDQYSTEPGRYRFMGTEAYAESIDRTVMYYGLPFIQEADFPFNNYLSMLDTVSGNSVYEVITSWMENMPEGKWPNWMIGGPDSSRLTSRLGNQYVNVMNMLLFTLPGTPITYYGEEIGMGNIVAANLNESYDINTLRSKSPMQWDNSSNAGFSEASNTWLPTNSDYHTVNVDVQKTQPRSALKLYQDLSLLHANELLLNRGWFCHLRNDSHYVVYTRELDGIDRIFIVVLNFGESTLLNLHNMISGLPAKMRIRLSTNSADKGSKVDTSGIFLDKGEGLIFEHNTKNLLHRQTAFRDRCFVSNRACYSSVLNILYTSC", "modifications": "five glycosylation sites in the extracellular domain (residues 111 to 685)"}}, "target": "the molecule itself", "assay": "cryo-EM structure"}
{"protein": "B1", "values": [{"measurement": "stoichiometry N", "result": 2}]}
